Measured values as given in the Immune Epitope Database (IEDB).

Assays:
HLA-A*32:01 = assay: IEDB peptide-MHC binding, purified MHC/competitive/radioactivity; filed as Kd, often an IC50 or EC50 that approximates it; ≥ and ≤ were set here for values at or beyond the usual limits of such assays
HLA-B*44:02 = assay: as above
HLA-B*44:03 = assay: as above
HLA-B*57:01 = assay: IEDB peptide-MHC binding, purified MHC/direct/fluorescence; filed as Kd, often an IC50 or EC50 that approximates it; ≥ and ≤ were set here for values at or beyond the usual limits of such assays; conditions: source organism: Bacillus mycoides
HLA-B*58:01 = assay: as above
HLA-A*01:01 [1] = assay: IEDB peptide-MHC binding, purified MHC/competitive/radioactivity; filed as Kd, often an IC50 or EC50 that approximates it; ≥ and ≤ were set here for values at or beyond the usual limits of such assays
HLA-A*23:01 = assay: as above
HLA-A*24:02 = assay: as above
HLA-A*26:01 = assay: as above
HLA-A*29:02 = assay: as above
HLA-A*30:02 = assay: as above
HLA-B*40:01 = assay: IEDB peptide-MHC binding, purified MHC/direct/fluorescence; filed as Kd, often an IC50 or EC50 that approximates it; ≥ and ≤ were set here for values at or beyond the usual limits of such assays; conditions: source organism: SARS-CoV1
HLA-A*01:01 [2] = assay: as above; conditions: source organism: SARS-CoV1
HLA-A*03:01 [3] = assay: as above; conditions: source organism: SARS-CoV1
HLA-A*11:01 [4] = assay: as above; conditions: source organism: SARS-CoV1
HLA-B*15:01 = assay: as above; conditions: source organism: SARS-CoV1
HLA-A*03:01 [5] = assay: IEDB peptide-MHC binding, purified MHC/competitive/radioactivity; filed as Kd, often an IC50 or EC50 that approximates it; ≥ and ≤ were set here for values at or beyond the usual limits of such assays; conditions: source organism: Vaccinia virus WR
HLA-A*11:01 [6] = assay: as above; conditions: source organism: Vaccinia virus WR
HLA-A*31:01 = assay: as above; conditions: source organism: Vaccinia virus WR
HLA-A*33:01 = assay: as above; conditions: source organism: Vaccinia virus WR
HLA-A*68:01 = assay: as above; conditions: source organism: Vaccinia virus WR
[7] = source organism: Dengue virus 2 Jamaica/1409/1983
[8] = source organism: Dengue virus 1 Brazil/97-11/1997
[9] = source organism: SARS coronavirus Tor2
[10] = source organism: Dengue virus 4 Dominica/814669/1981
[11] = source organism: Dengue virus 4 Philippines/H241/1956
[12] = source organism: Vaccinia virus WR
[13] = source organism: Dengue virus 3 Martinique/1243/1999
[14] = source organism: Vaccinia virus Copenhagen
[15] = source organism: Mammarenavirus lassaense
[16] = source organism: Lassa virus GA391
[17] = source organism: Mammarenavirus machupoense
[18] = source organism: Mammarenavirus whitewaterense
[19] = source organism: Mammarenavirus tacaribeense

Sequence: RMLINRFTM
- Kd (HLA-A*32:01; [7]): 95.7 nM

Sequence: EENMDVEIW
- Kd (HLA-B*44:02; [8]): 82.8 nM
- Kd (HLA-B*44:03; [8]): 123 nM

Sequence: ITFQSILGY
- Kd (HLA-B*57:01): 70.7 nM
- Kd (HLA-B*58:01; source organism: Bacillus mycoides): 57.3 nM

Sequence: TDNVHTWTEQ
- Kd (HLA-A*32:01; [7]): ≥ 37600 nM

Sequence: GPDDQIGYY
- Kd (HLA-A*01:01 [1]; [9]): ≥ 79400 nM
- Kd (HLA-A*23:01; [9]): ≥ 77800 nM
- Kd (HLA-A*24:02; [9]): ≥ 77600 nM
- Kd (HLA-A*26:01; [9]): 11000 nM
- Kd (HLA-A*29:02; [9]): 6490 nM
- Kd (HLA-A*30:02; [9]): 2450 nM

Sequence: KMFESTYRG
- Kd (HLA-A*32:01; [10]): 907 nM

Sequence: WFITQRNFF
- Kd (HLA-A*01:01 [1]; [9]): 1090 nM
- Kd (HLA-A*23:01; [9]): 2730 nM
- Kd (HLA-A*24:02; [9]): ≥ 32500 nM
- Kd (HLA-A*26:01; [9]): 172 nM
- Kd (HLA-A*29:02; [9]): 13.6 nM
- Kd (HLA-A*30:02; [9]): 137 nM

Sequence: AEDMLNPNY
- Kd (HLA-B*40:01): 4390 nM
- Kd (HLA-A*01:01 [1]; [9]): ≥ 87700 nM
- Kd (HLA-A*23:01; [9]): ≥ 77800 nM
- Kd (HLA-A*24:02; [9]): ≥ 77600 nM
- Kd (HLA-A*26:01; [9]): ≥ 86900 nM
- Kd (HLA-A*29:02; [9]): 3800 nM
- Kd (HLA-A*30:02; [9]): 12900 nM

Sequence: TEIASLPTY
- Kd (HLA-B*44:02; [11]): 13 nM
- Kd (HLA-B*44:03; [11]): 18.5 nM

Sequence: ASISSVLTI
- Kd (HLA-A*32:01; [12]): 13.3 nM

Sequence: AYLRKHFSM
- Kd (HLA-A*01:01 [1]; [9]): ≥ 78100 nM
- Kd (HLA-A*23:01; [9]): ≥ 24400 nM
- Kd (HLA-A*24:02; [9]): ≥ 83300 nM
- Kd (HLA-A*26:01; [9]): ≥ 77900 nM
- Kd (HLA-A*29:02; [9]): 6290 nM
- Kd (HLA-A*30:02; [9]): ≥ 75000 nM

Sequence: EEESEGAIW
- Kd (HLA-B*44:02; [13]): 33.7 nM
- Kd (HLA-B*44:03; [13]): 67.7 nM

Sequence: AMFTAALNI
- Kd (HLA-A*32:01; [12]): 123 nM

Sequence: AWMVHRQWFF
- Kd (HLA-A*23:01; [13]): 9.48 nM
- Kd (HLA-A*24:02; [13]): 4.7 nM
- Kd (HLA-B*44:02; [13]): 2210 nM

Sequence: LLMYNLLTI
- Kd (HLA-A*32:01; [14]): 71.7 nM

Sequence: ESDSKPQKV
- Kd (HLA-A*01:01 [1]; [15]): 180 nM
- Kd (HLA-A*23:01; [15]): ≥ 77700 nM
- Kd (HLA-A*24:02; [15]): ≥ 77500 nM
- Kd (HLA-A*26:01; [15]): ≥ 77900 nM
- Kd (HLA-A*29:02; [15]): ≥ 78900 nM
- Kd (HLA-A*30:02; [15]): ≥ 76900 nM

Sequence: YCNYSRYWY
- Kd (HLA-A*01:01 [1]; [16]): ≥ 34400 nM
- Kd (HLA-A*23:01; [16]): ≥ 36900 nM
- Kd (HLA-A*24:02; [16]): ≥ 77500 nM
- Kd (HLA-A*26:01; [16]): ≥ 77900 nM
- Kd (HLA-A*29:02; [16]): 1230 nM
- Kd (HLA-A*30:02; [16]): 818 nM

Sequence: QCGDPSSFEY
- Kd (HLA-A*01:01 [1]; [17]): 500 nM
- Kd (HLA-A*23:01; [17]): ≥ 68800 nM
- Kd (HLA-A*24:02; [17]): ≥ 70300 nM
- Kd (HLA-A*26:01; [17]): ≥ 69700 nM
- Kd (HLA-A*29:02; [17]): 600 nM
- Kd (HLA-A*30:02; [17]): 1580 nM

Sequence: TYVPSQERNF
- Kd (HLA-A*01:01 [1]; [9]): ≥ 70400 nM
- Kd (HLA-A*23:01; [9]): 39.2 nM
- Kd (HLA-A*24:02; [9]): 72.3 nM
- Kd (HLA-A*26:01; [9]): ≥ 69700 nM
- Kd (HLA-A*29:02; [9]): 1310 nM
- Kd (HLA-A*30:02; [9]): 14100 nM

Sequence: KAADVTWEEE
- Kd (HLA-A*32:01; source organism: Dengue virus 3 Singapore/8120/1995): ≥ 33100 nM

Sequence: MLMRVAVGI
- Kd (HLA-A*32:01; [12]): 0.692 nM

Sequence: VDNVHTWTEQ
- Kd (HLA-A*32:01; [10]): ≥ 34100 nM

Sequence: GYKNVRITF
- Kd (HLA-A*01:01 [1]; [9]): ≥ 78100 nM
- Kd (HLA-A*23:01; [9]): 11000 nM
- Kd (HLA-A*24:02; [9]): 6990 nM
- Kd (HLA-A*26:01; [9]): ≥ 54100 nM
- Kd (HLA-A*29:02; [9]): 3700 nM
- Kd (HLA-A*30:02; [9]): ≥ 23100 nM

Sequence: FYVSSIFLHL
- Kd (HLA-A*23:01; [18]): 8.55 nM
- Kd (HLA-A*24:02; [18]): 114 nM
- Kd (HLA-A*29:02; [18]): 10.9 nM

Sequence: YCDPKRFFL
- Kd (HLA-A*01:01 [1]; [19]): ≥ 29100 nM
- Kd (HLA-A*23:01; [19]): 7530 nM
- Kd (HLA-A*24:02; [19]): 11300 nM
- Kd (HLA-A*26:01; [19]): ≥ 77900 nM
- Kd (HLA-A*29:02; [19]): ≥ 78900 nM
- Kd (HLA-A*30:02; [19]): ≥ 76900 nM

Sequence: LTGYGTVTM
- Kd (HLA-A*32:01; [7]): 15400 nM

Sequence: KSLKKVYTF
- Kd (HLA-A*32:01; [12]): 0.485 nM

Sequence: LSDDAVVCY
- Kd (HLA-A*01:01 [2]): 17.5 nM
- Kd (HLA-A*03:01 [3]): 9260 nM
- Kd (HLA-A*11:01 [4]): ≥ 22300 nM
- Kd (HLA-B*15:01): 474 nM
- Kd (HLA-B*58:01; source organism: SARS-CoV1): 300 nM
- Kd (HLA-A*23:01; [9]): ≥ 77800 nM
- Kd (HLA-A*24:02; [9]): ≥ 77600 nM
- Kd (HLA-A*26:01; [9]): ≥ 80300 nM
- Kd (HLA-A*29:02; [9]): 1000 nM
- Kd (HLA-A*30:02; [9]): 1450 nM

Sequence: DLIKKSDAKR
- Kd (HLA-A*03:01 [5]): 6370 nM
- Kd (HLA-A*11:01 [6]): 12500 nM
- Kd (HLA-A*29:02; [12]): 28.7 nM
- Kd (HLA-A*31:01): 3.96 nM
- Kd (HLA-A*33:01): 8.97 nM
- Kd (HLA-A*68:01): 13.9 nM

Sequence: SIIFINYTM
- Kd (HLA-A*32:01; [14]): 6.51 nM

Sequence: PTITQMNLKY
- Kd (HLA-A*01:01 [1]; [9]): 89.6 nM
- Kd (HLA-A*23:01; [9]): ≥ 70000 nM
- Kd (HLA-A*24:02; [9]): ≥ 70300 nM
- Kd (HLA-A*26:01; [9]): 827 nM
- Kd (HLA-A*29:02; [9]): 48.4 nM
- Kd (HLA-A*30:02; [9]): 1120 nM
